Each block holds one binder with its values, some of them ahead of it. Starred links: 1 amine or outer side, 2 acyl side, 3 side chain; linkers in the order of their positions; H or OH if unused. Positions of bridges follow the written chain, without caps; N, C: chain ends. Non-standard residues stand in square brackets, D forms with d. No end group written: not given here. *: point of attachment. Yde = (2S)-2-amino-3-[4-[2-(dimethylamino)ethoxy]phenyl]propanoic acid, CN(C)CCOc1ccc(C[C@H](N[*:1])C(=O)[*:2])cc1; Phe(4-OMe) = COc1ccc(C[C@H](N[*:1])C(=O)[*:2])cc1; Trp(7-Me) = Cc1cccc2c(C[C@H](N)C(=O)O)c[nH]c12; αMeLys(Me2) = CN(C)CCCC[C@](C)(N)C(=O)O; 2Nal = N[C@@H](Cc1ccc2ccccc2c1)C(=O)O; εLys = N[C@@H](CCCCN[*:1])C(=O)[*:2]; NMe5Ava = CN(CCCCC(=O)[*:2])[*:1]; Palmitoyl = CCCCCCCCCCCCCCCC(=O)*; 3Pal = N[C@@H](Cc1cccnc1)C(=O)O; Dad = desamino-aspartamic acid; Lys(Me) = CNCCCC[C@H](N)C(=O)O; NMeN = CN[C@@H](CC(N)=O)C(=O)O; αMeL = CC(C)C[C@](C)(N)C(=O)O; αMeK = C[C@](N)(CCCCN)C(=O)O; NMeC = CN[C@@H](CS)C(=O)O; Thp = NC1(C(=O)O)CCOCC1; Aib = CC(C)(N)C(=O)O; Ahx = NCCCCCC(=O)O; Ava = NCCCCC(=O)O; Sar = CNCC(=O)O
Target: T1, IL-23 receptor on the surface of HEK-Blue IL-23 cells (UniProt Q5VWK5 24-629, limits assumed)
T1 sequence (looked up): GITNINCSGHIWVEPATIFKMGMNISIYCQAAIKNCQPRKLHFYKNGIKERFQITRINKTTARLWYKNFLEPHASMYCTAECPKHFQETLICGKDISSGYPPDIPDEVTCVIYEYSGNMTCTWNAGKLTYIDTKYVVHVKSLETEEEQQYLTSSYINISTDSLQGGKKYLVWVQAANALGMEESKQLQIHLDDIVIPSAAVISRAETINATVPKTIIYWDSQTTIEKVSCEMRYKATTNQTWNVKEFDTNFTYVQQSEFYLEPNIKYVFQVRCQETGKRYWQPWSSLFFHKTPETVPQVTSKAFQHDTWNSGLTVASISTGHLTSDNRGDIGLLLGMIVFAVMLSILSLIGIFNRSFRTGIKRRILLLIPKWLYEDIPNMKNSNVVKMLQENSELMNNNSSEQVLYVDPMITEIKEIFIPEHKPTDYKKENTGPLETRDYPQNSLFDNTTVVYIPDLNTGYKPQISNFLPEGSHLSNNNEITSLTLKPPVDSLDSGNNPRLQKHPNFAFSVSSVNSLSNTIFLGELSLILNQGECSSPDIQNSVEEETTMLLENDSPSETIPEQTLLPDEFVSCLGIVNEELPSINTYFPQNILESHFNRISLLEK
Assay: cell-based or functional assay

pSTAT3 (nM): 2.69 nM
B3: Compound of SEQ ID NO: 68 (peptide)
peptide: [Dad]C[εLys](Ac)[Trp(7-Me)]LC[Yde][2Nal][αMeL][Lys(Me)]N[3Pal][Sar]-NH2
modifications: lactam (positions not given here); disulfide 2-6; not fully specified (bridges); printed as Dad(§1)-C(§3)(@2)-K[aAc](@3)-Wim-L-C(@2)-Yde-Nal-Mle-Kme(§1)-N-Pal-Sar-NH2; also: Cys2 bonded to ε-NH2 of Lys3 (isopeptide backbone)

pSTAT3 (nM): 72.9 nM
B4: Compound of SEQ ID NO: 6 (peptide)
peptide: [Ahx]C[NMeN]TWQC[Phe(4-OMe)][2Nal][Aib]DNN-NH2
modifications: lactam N-11; disulfide 2-7
SMILES: COc1ccc(C[C@@H]2NC(=O)[C@@H]3CSSC[C@H](NC(=O)CCCCCNC(=O)C[C@@H](C(=O)N[C@@H](CC(N)=O)C(=O)N[C@@H](CC(N)=O)C(N)=O)NC(=O)C(C)(C)NC(=O)[C@H](Cc4ccc5ccccc5c4)NC2=O)C(=O)N(C)[C@@H](CC(N)=O)C(=O)N[C@@H]([C@@H](C)O)C(=O)N[C@@H](Cc2c[nH]c4ccccc24)C(=O)N[C@@H](CCC(N)=O)C(=O)N3)cc1

pSTAT3 (nM): 22.6 nM
B6: Compound of SEQ ID NO: 67 (peptide)
peptide: [Ava]C[εLys](Ac)[Trp(7-Me)]K(Ac)C[Yde][2Nal][αMeK](Palmitoyl)EN[3Pal][Sar]-NH2
modifications: lactam N-10; disulfide 2-6; also: Cys2 carboxyl joined to epsilon-NH2 of Lys3 (isopeptide bond), Lys3 alpha-N acetylated

pSTAT3 (nM): 0.11 nM
B10: Compound of SEQ ID NO: 103 (peptide)
peptide: [Dad]CNT[Trp(7-Me)]K(Ac)C[Yde][2Nal][αMeL]KN[3Pal][Sar]-NH2
modifications: lactam (positions not given here); disulfide 2-7; not fully specified (bridges); printed as Dad(§1)-C(@2)-N-T-Wim-K[Ac]-C(@2)-Yde-Nal-Mle-K(§1)-N-Pal-Sar-NH2

pSTAT3 (nM): 3.94 nM
Binder: XXKXLCXXXXAXX (Dad(§1)-Nmc(§3)(@2)-K[aAc](@3)-Wim-L-C(@2)-Yde-Nal-Mie-Kme(§1)-A-Pal-Sar-NH2) [Compound of SEQ ID NO: 70]

pSTAT3 (nM): 0.1 nM
B13: Compound of SEQ ID NO: 104 (peptide)
peptide: [Dad]CK[Trp(7-Me)]K(Ac)C[Yde][2Nal][Aib]KN[3Pal][Sar]-NH2
modifications: lactam (positions not given here); disulfide 2-6; not fully specified (residue 3, bridges); printed as Dad(§1)-C(§3)(@2)-K[aAc](@3)-Wim-K[Ac]-C(@2)-Yde-Nal-Aib-K(§1)-N-Pal-Sar-NH2; also: K[aAc]: Cys2 bonded to epsilon-NH2 of acetylated Lys3, acetyl presumably on alpha-amine

pSTAT3 (nM): 0.09 nM
B14: Compound of SEQ ID NO: 102 (peptide)
peptide: [Dad]CNT[Trp(7-Me)]K(Ac)C[Yde][2Nal][Thp]KN[3Pal][Sar]-NH2
modifications: lactam (positions not given here); disulfide 2-7; not fully specified (bridges); printed as Dad(§1)-C(@2)-N-T-Wim-K[Ac]-C(@2)-Yde-Nal-Thp-K(§1)-N-Pal-Sar-NH2

pSTAT3 (nM): 0.2 nM
B17: Compound of SEQ ID NO: 62 (peptide)
peptide: [Ava]CNT[Trp(7-Me)]QC[Yde][2Nal][Aib]EN[3Pal][Sar]-NH2
modifications: lactam N-11; disulfide 2-7
SMILES: Cc1cccc2c(C[C@@H]3NC(=O)[C@H]([C@@H](C)O)NC(=O)[C@H](CC(N)=O)NC(=O)[C@@H]4CSSC[C@H](NC(=O)[C@H](CCC(N)=O)NC3=O)C(=O)N[C@@H](Cc3ccc(OCCN(C)C)cc3)C(=O)N[C@@H](Cc3ccc5ccccc5c3)C(=O)NC(C)(C)C(=O)N[C@H](C(=O)N[C@@H](CC(N)=O)C(=O)N[C@@H](Cc3cccnc3)C(=O)N(C)CC(N)=O)CCC(=O)NCCCCC(=O)N4)c[nH]c12

Second part, the binder before the results:

B1: Compound of SEQ ID NO: 60 (peptide)
peptide: [NMe5Ava]C[εLys](Ac)[Trp(7-Me)]K(Ac)C[Yde][2Nal][Aib]ENH-NH2
modifications: lactam N-10; disulfide 2-6; also: Cys2 bonded to epsilon-NH2 of Lys3, Lys3 alpha-amine acetylated (K[aAc])
pSTAT3 (nM): 0.16 nM

B2: Compound of SEQ ID NO: 63 (peptide)
peptide: [Ava]CNT[Trp(7-Me)]QC[Yde][2Nal][αMeL]EN[3Pal][Sar]-NH2
modifications: lactam N-11; disulfide 2-7
SMILES: Cc1cccc2c(C[C@@H]3NC(=O)[C@H]([C@@H](C)O)NC(=O)[C@H](CC(N)=O)NC(=O)[C@@H]4CSSC[C@H](NC(=O)[C@H](CCC(N)=O)NC3=O)C(=O)N[C@@H](Cc3ccc(OCCN(C)C)cc3)C(=O)N[C@@H](Cc3ccc5ccccc5c3)C(=O)N[C@@](C)(CC(C)C)C(=O)N[C@H](C(=O)N[C@@H](CC(N)=O)C(=O)N[C@@H](Cc3cccnc3)C(=O)N(C)CC(N)=O)CCC(=O)NCCCCC(=O)N4)c[nH]c12
pSTAT3 (nM): 0.2 nM

B5: Compound of SEQ ID NO: 71 (peptide)
peptide: [Dad]CNT[Trp(7-Me)]QC[Yde][2Nal][Aib]KN[3Pal]K-NH2
modifications: lactam (positions not given here); disulfide 2-7; not fully specified (residue 14, bridges); printed as Dad(§1)-C(@2)-N-T-Wim-Q-C(@2)-Yde-Nal-Aib-K(§1)-N-Pal-K[Sema]-NH2
pSTAT3 (nM): 2.35 nM

B7: Compound of SEQ ID NO: 59 (peptide)
peptide: [Ava]C[εLys](Ac)WK(Ac)C[Yde][2Nal][αMeLys(Me2)]EN[3Pal][Sar]-NH2
modifications: lactam N-10; disulfide 2-6; also: Cys2 bonded to epsilon-NH2 of Lys3, Lys3 alpha-amine acetylated (K[aAc])
pSTAT3 (nM): 0.07 nM

B8: Compound of SEQ ID NO: 72 (peptide)
peptide: [Ava]C[εLys](Ac)[Trp(7-Me)]K(Ac)C[Yde][2Nal][Aib]EN[3Pal][Sar]-NH2
modifications: lactam N-10; disulfide 2-6; also: Cys2 carboxyl joined to epsilon-NH2 of Lys3 (isopeptide bond), Lys3 alpha-N acetylated
pSTAT3 (nM): 0.12 nM

B9: Compound of SEQ ID NO: 66 (peptide)
peptide: [Ava]C[εLys](Ac)[Trp(7-Me)]K(Ac)C[Yde][2Nal][Thp]EN[3Pal][Sar]-NH2
modifications: lactam N-10; disulfide 2-6; also: Cys2 carboxyl joined to epsilon-NH2 of Lys3 (isopeptide bond), Lys3 alpha-N acetylated
pSTAT3 (nM): 0.15 nM

B11: Compound of SEQ ID NO: 74 (peptide)
peptide: [Dad][NMeC]K[Trp(7-Me)]K(Ac)C[Yde][2Nal][Thp][Lys(Me)]N[3Pal][Sar]-NH2
modifications: lactam 1-10; disulfide 2-6; not fully specified (residue 3); printed as Dad(§1)-Nmc(§3)(@2)-K[aAc](@3)-Wim-K[Ac]-C(@2)-Yde-Nal-Thp-Kme(§1)-N-Pal-Sar-NH2; also: Nmc2 carbonyl joined by amide bond to epsilon-NH2 of Lys3 (branched isopeptide), Lys3 alpha-NH2 acetylated
pSTAT3 (nM): 0.12 nM

B12: Compound of SEQ ID NO: 73 (peptide)
peptide: [Ava]C[εLys](Ac)[Trp(7-Me)]K(Ac)C[Yde][2Nal][αMeL]EN[3Pal][Sar]-NH2
modifications: lactam N-10; disulfide 2-6; also: Cys2 carboxyl joined to epsilon-NH2 of Lys3 (isopeptide bond), Lys3 alpha-N acetylated
pSTAT3 (nM): 0.1 nM

B15: Compound of SEQ ID NO: 69 (peptide)
peptide: [Dad][NMeC][εLys](Ac)[Trp(7-Me)]LC[Yde][2Nal][αMeL][Lys(Me)]N[3Pal][Sar]-NH2
modifications: lactam (positions not given here); disulfide 2-6; not fully specified (bridges); printed as Dad(§1)-Nmc(§3)(@2)-K[aAc](@3)-Wim-L-C(@2)-Yde-Nal-Mle-Kme(§1)-N-Pal-Sar-NH2; also: Nmc2 carboxyl joined to epsilon-NH2 of Lys3 (isopeptide bond), Lys3 alpha-N acetylated
pSTAT3 (nM): 3.07 nM

B16: Compound of SEQ ID NO: 64 (peptide)
peptide: [Ava]CNT[Trp(7-Me)]K(Ac)C[Yde][2Nal][Aib]EN[3Pal][Sar]-NH2
modifications: lactam N-11; disulfide 2-7
SMILES: CC(=O)NCCCC[C@@H]1NC(=O)[C@H](Cc2c[nH]c3c(C)cccc23)NC(=O)[C@H]([C@@H](C)O)NC(=O)[C@H](CC(N)=O)NC(=O)[C@@H]2CSSC[C@H](NC1=O)C(=O)N[C@@H](Cc1ccc(OCCN(C)C)cc1)C(=O)N[C@@H](Cc1ccc3ccccc3c1)C(=O)NC(C)(C)C(=O)N[C@H](C(=O)N[C@@H](CC(N)=O)C(=O)N[C@@H](Cc1cccnc1)C(=O)N(C)CC(N)=O)CCC(=O)NCCCCC(=O)N2
pSTAT3 (nM): 0.22 nM
